Kd data for 1 substance are collected here from paper doi:10.1101/2023.06.21.545551.

In the assay the target is MYC(352–437):MAX(22–102) heterodimer (human) (UniProt P61244). Kind of assay: NMR titration.
MYC(352–437):MAX(22–102) heterodimer (human), sequence (P61244 whole entry, looked up, tested part not stated, one chain of several): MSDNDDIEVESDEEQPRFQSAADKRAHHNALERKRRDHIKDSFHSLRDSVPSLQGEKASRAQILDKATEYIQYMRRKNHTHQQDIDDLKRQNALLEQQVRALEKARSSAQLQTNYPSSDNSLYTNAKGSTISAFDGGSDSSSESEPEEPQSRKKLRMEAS

With MYC(11–34), Mb0 peptide, the Kd was 7 µM.

The Kd is a measure of binding affinity in units of concentration. Read a high Kd as a looser complex.
